Experimental data published in patent publication US20040265809A1 (published 2004).

Molecular target: T1, rat RORβ ligand-binding domain (RORβ-LBD), residues 201-452, polyhistidine-tagged (rat, UniProt P45446 212-463)
T1 construct: Expressed in E. coli; The ligand pocket holds stearic acid (first crystal) or all-trans retinoic acid (second crystal); One monomer per asymmetric unit; also called rRORβ-LBD; RORbeta LBD; not shown: N-terminal polyhistidine tag and thrombin cleavage site from the pet15b vector (Novagen); the tagge
T1 sequence: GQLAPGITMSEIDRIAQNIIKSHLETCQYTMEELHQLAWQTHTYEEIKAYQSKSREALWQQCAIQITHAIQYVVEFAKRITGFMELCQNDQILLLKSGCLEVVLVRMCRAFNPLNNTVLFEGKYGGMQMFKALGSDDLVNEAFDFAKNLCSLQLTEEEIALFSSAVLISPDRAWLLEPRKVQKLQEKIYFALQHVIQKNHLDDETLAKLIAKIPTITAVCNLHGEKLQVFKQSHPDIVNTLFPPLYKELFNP
Assay: co-crystallisation, hanging drop, stearate complex
Description: The RORβ-LBD stearate complex was crystallized at 22° C. by vapor diffusion in the hanging-drop mode. In the crystallisation trials, the protein was used without further purification and co-crystallized with a 3-molar excess of SRC-1⁶⁸⁶⁻⁷⁰⁰([…]) NR-interacting peptide co-activator sequence. Addition of the peptide was crucial to obtain crystals. In the initial trial to obtain crystallization conditions, a sparse matrix crystallization screen was done with a home screen. For each crystallization trial, a 4 μl drop was prepared by mixing 2 μl of purified protein (5.8 mg/ml) with an equal volume of reservoir solution. The reservoir contained 500 μl of the precipitating solution. A crystal measuring […] at 22° C. in PEG 6000 15% and 100 mM Tris HCl at pH=8.0 grew within about 2 weeks. This crystal was used in a first data collection run (as described below).

binding result: binds
Binder: RHKILHRLLQEGSPS (also called SRC1 peptide) [SRC-1 686-700 NR-interacting co-activator peptide]
